In one assay the target is T1, ADI-76358.
T1 construct: anti-CD3 antibody made in CHO cells, captured by anti-human Fc
As to the kind of experiment: SPR Carterra avidity, CHO anti-ID. As to the method: (§1) Kinetic analysis was conducted at 25° C. in an HBSTE running buffer system (Carterra Cat #3630) using a Carterra LSA (Carterra USA, Salt Lake City, UT). The sample compartment was maintained at 20° C. for the duration of each experiment.
(§2) For antibody capture experiments, a goat anti-human Fc antibody (Jackson ImmunoResearch) was covalently coupled to an HC30M sensor chip surface via standard amine coupling (1:1 EDC:NHS) and then blocked with ethanolamine (1.0 M, pH 8.5). Covalent coupling steps were performed in 25 mM MES buffer (Carterra, Cat #3625) plus 0.05% Tween20. The anti-CD3 antibodies (100 nM in running buffer) were flowed over discrete regions of interest on the chip surface for 5 minutes. […] Dissociation of the anti-idiotype antibodies was monitored for 300s. Several blank buffer samples were injected over the entire chip surface at the start of each non-regenerative kinetic cycle. The preceding blank buffer injection was used for blank surface subtraction. At the end of each non-regenerative kinetic cycle, all surfaces were regenerated via two 30s injections of 10 mM glycine, pH 1.7.
(§3) In Tables 10A-10C, anti-CD3 antibodies are listed by ADI number or CTL number in the first column. […] CTL-62223 is mosunetuzumab, CTL-62227 is odronextamab, CTL-62228 is glofitamab, and CTL-62240 is ONO-4685. […] “W.B.” means weak binding under the conditions of this assay and thus a KD was unable to be assigned. “N.B.” means no binding under the conditions of this assay.

The target in a further assay is T2, ADI-74966.
T2 construct: pH-dependent anti-CD3 antibody made in CHO cells
T2 sequence (VH, as listed by the source, chain 1 of 2): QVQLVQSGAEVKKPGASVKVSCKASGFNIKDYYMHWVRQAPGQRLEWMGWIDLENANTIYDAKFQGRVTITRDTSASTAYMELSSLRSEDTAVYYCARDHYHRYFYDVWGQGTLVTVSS
T2 sequence (VL, as listed by the source, chain 2 of 2): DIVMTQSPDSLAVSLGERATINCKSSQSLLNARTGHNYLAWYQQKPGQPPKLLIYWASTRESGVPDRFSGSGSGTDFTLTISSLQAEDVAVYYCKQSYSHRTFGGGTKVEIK
Description: SPR Carterra avidity, CHO anti-ID. As to the method: as §1, §2, §3

The next assay concerns the target T3, ADI-76362.
T3 construct: anti-CD3 antibody made in CHO cells, captured by anti-human Fc
Description: SPR Carterra avidity, CHO anti-ID. As to the method: as §1, §2, §3

The target in the next assay is T4, ADI-26913 IgG.
T4 construct: anti-CD3 IgG
T4 sequence (VH, as listed by the source limits assumed, chain 1 of 2): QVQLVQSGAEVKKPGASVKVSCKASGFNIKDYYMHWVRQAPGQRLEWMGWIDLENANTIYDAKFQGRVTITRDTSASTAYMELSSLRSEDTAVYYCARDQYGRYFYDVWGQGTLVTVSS
T4 sequence (VL, as listed by the source limits assumed, chain 2 of 2): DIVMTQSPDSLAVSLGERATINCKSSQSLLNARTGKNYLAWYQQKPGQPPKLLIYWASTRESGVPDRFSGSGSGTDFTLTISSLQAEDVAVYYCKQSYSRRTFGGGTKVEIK
Description: SPR Carterra avidity, CHO anti-ID. As to the method:
as §1, §2, §3

The target of the next assay is T5, ADI-70330.
T5 construct: anti-CD3 antibody made in CHO cells, captured by anti-human Fc
T5 sequence (VH, as listed by the source limits assumed, chain 1 of 2): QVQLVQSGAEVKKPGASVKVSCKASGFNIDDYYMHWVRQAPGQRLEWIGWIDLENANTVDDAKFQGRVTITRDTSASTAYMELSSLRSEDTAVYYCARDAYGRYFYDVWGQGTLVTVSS
T5 sequence (VL, as listed by the source limits assumed, chain 2 of 2): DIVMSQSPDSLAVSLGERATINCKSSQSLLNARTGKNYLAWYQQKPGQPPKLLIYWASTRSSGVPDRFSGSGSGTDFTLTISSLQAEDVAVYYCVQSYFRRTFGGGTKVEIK
Description: SPR Carterra avidity, CHO anti-ID. Here is the method:
as §1, §2, §3

The next assay concerns the target T6, ADI-70326.
T6 construct: anti-CD3 antibody made in CHO cells, captured by anti-human Fc
Description: SPR Carterra avidity, CHO anti-ID. Here is the method: as §1, §2, §3

A further assay addresses T7, ADI-76360.
T7 construct: anti-CD3 antibody made in CHO cells, captured by anti-human Fc
Description: SPR Carterra avidity, CHO anti-ID. Here is the method: as §1, §2, §3

The next assay addresses T8, ADI-70327.
T8 construct: anti-CD3 antibody made in CHO cells, captured by anti-human Fc
Description: SPR Carterra avidity, CHO anti-ID. As to the method: as §1, §2, §3

In a further assay the target is T9, ADI-48587.
T9 construct: pH-dependent anti-CD3 antibody made in CHO cells
T9 sequence (VL, as listed by the source, chain 2 of 2): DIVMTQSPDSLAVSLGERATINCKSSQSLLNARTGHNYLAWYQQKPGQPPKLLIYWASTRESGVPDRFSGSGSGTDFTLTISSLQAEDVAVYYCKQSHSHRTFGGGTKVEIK
As to the kind of experiment: SPR Carterra avidity, CHO anti-ID. As to the method: as §1, §2, §3

The target of the next assay is T10, ADI-67450.
T10 construct: anti-CD3 antibody made in CHO cells, captured by anti-human Fc
T10 sequence (VH, as listed by the source limits assumed, chain 1 of 2): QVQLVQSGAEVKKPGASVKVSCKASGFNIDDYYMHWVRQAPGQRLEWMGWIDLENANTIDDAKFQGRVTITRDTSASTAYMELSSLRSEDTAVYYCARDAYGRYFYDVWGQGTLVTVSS
As to the kind of experiment: SPR Carterra avidity, CHO anti-ID. As to the method: as §1, §2, §3

Assay [1] has as its target T11, ADI-76357.
T11 construct: anti-CD3 antibody made in CHO cells, captured by anti-human Fc
As to the kind of experiment: SPR Carterra avidity, CHO anti-ID, *koff limit. As to the method:
as §1, §2
(§4) For data processing and fitting, sensorgrams were double reference subtracted with a baseline drift correction of 4 RU. Sensorgrams were y-aligned and baseline corrected, filtered and cropped to include only the association and dissociation steps. Data was fitted to a 1:1 binding model using Carterra Kinetics Data Analysis software version 1.7.1.3055.

Another assay concerns the target T12, ADI-67445.
T12 construct: anti-CD3 antibody made in CHO cells, captured by anti-human Fc
As to the kind of experiment: SPR Carterra avidity, CHO anti-ID, *koff limit. As to the method:
as §1, §2, §4

The target of assay [2] is T13, ADI-67447.
T13 construct: anti-CD3 antibody made in CHO cells, captured by anti-human Fc
T13 sequence (VH, as listed by the source limits assumed, chain 1 of 2): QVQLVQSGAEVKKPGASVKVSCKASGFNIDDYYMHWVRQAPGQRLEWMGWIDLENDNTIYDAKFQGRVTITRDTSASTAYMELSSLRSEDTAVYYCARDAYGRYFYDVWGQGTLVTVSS
As to the kind of experiment: SPR Carterra avidity, CHO anti-ID, *koff limit. Here is the method: as §1, §2, §4

The target in a further assay is T14, ADI-74967.
T14 construct: pH-dependent anti-CD3 antibody made in CHO cells
T14 sequence (VL, as listed by the source, chain 2 of 2): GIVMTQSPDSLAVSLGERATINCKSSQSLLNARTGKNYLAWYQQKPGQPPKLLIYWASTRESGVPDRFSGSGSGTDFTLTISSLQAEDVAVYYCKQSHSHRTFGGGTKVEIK
Description: SPR Carterra avidity, CHO anti-ID, *koff limit. As to the method:
as §1, §2, §4

The target in the next assay is T15, ADI-26909.
T15 construct: anti-CD3 antibody made in CHO cells, captured by anti-human Fc
T15 sequence (VH, as listed by the source limits assumed, chain 1 of 2): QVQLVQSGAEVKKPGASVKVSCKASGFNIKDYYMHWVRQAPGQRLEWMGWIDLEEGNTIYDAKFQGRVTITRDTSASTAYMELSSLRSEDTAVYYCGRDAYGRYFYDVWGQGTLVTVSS
As to the kind of experiment: SPR Carterra avidity, CHO anti-ID, *koff limit. Here is the method:
as §1, §2, §4

The target of a further assay is T16, ADI-26921 IgG.
T16 construct: anti-CD3 IgG
T16 sequence (VH, as listed by the source limits assumed, chain 1 of 2): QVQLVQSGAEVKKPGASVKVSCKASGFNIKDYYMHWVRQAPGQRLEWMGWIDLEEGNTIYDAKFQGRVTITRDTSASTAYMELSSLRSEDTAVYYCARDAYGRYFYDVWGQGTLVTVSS
T16 sequence (VL, as listed by the source limits assumed, chain 2 of 2): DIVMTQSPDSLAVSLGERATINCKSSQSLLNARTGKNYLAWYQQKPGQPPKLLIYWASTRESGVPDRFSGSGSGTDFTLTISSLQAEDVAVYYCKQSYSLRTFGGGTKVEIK
As to the kind of experiment: SPR Carterra avidity, CHO anti-ID, *koff limit. Here is the method:
as §1, §2, §4

In a further assay the target is T17, ADI-76361.
T17 construct: anti-CD3 antibody made in CHO cells, captured by anti-human Fc
T17 sequence (VH, as listed by the source, chain 1 of 2): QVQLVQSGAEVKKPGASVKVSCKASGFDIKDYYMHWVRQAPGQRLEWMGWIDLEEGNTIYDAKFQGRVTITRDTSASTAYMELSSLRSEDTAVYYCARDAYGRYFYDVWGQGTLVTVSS
As to the kind of experiment: SPR Carterra avidity, CHO anti-ID, *koff limit. As to the method: as §1, §2, §4

Another assay has as its target T18, ADI-26906 Fab.
T18 construct: anti-CD3 Fab by papain digestion of the IgG
As to the kind of experiment: BLI; tip ADI-34145 IgG, solution anti-CD3 Fab. As to the method:
(§5) ForteBio affinity measurements were performed generally as previously described (Estep et al., MAbs. 2013 5(2):270-8). Briefly, ForteBio affinity measurements were performed by loading antibody IgG or Fabs on-line onto AHC sensors. Sensors were equilibrated off-line in assay buffer for 30 minutes and then monitored on-line for 60 seconds for baseline establishment. For avid binding measurement, sensors with loaded antibodies were exposed to IgG or Fab solutions for 3 minutes, afterwards they were transferred to assay buffer for 3 minutes for off-rate measurement. Kinetics data were fit using a 1:1 binding model in the data analysis software provided by ForteBio to obtain equilibrium dissociation constant (KD=koff/kₒₙ) values. In each column, tip-immobilized antibodies are listed first and solution antibodies second.
(§6) In each column, tip-immobilized antibodies are listed first and solution antibodies second.

A further assay concerns the target T19, ADI-26913 Fab.
T19 construct: anti-CD3 Fab by papain digestion of the IgG
Description: BLI; tip ADI-34145 IgG, solution anti-CD3 Fab. As to the method: as §5, §6

For a further assay, the target named is T20, ADI-22523 Fab.
T20 construct: anti-CD3 Fab by papain digestion of the IgG
T20 sequence (VH, as listed by the source limits assumed, chain 1 of 2): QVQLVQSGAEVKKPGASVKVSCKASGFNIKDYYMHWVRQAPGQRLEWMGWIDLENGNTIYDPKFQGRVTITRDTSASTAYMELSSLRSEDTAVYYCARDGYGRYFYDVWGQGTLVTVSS
T20 sequence (VL, as listed by the source limits assumed, chain 2 of 2): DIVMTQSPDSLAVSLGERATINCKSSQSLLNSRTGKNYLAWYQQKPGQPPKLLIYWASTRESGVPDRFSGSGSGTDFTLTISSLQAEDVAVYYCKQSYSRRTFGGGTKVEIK
Description: BLI; tip ADI-34145 IgG, solution anti-CD3 Fab. As to the method:
as §5, §6

For another assay, the target named is T21, ADI-26954 Fab.
T21 construct: anti-CD3 Fab by papain digestion of the IgG
T21 sequence (VH, as listed by the source limits assumed, chain 1 of 2): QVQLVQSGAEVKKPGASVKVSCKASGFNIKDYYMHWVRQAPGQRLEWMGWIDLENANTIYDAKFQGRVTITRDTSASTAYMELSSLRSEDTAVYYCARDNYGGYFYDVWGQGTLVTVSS
T21 sequence (VL, as listed by the source limits assumed, chain 2 of 2): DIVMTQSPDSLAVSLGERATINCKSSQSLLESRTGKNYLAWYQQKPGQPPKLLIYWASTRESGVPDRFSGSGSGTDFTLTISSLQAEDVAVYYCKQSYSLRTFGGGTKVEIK
As to the kind of experiment: BLI; tip ADI-34145 IgG, solution anti-CD3 Fab. As to the method: as §5, §6

In assay [3] the target is T11, ADI-76357. Description: SPR Carterra avidity, CHO anti-ID. Here is the method:
as §1, §2, §3

The target of a further assay is T22, ADI-26943.
T22 construct: anti-CD3 antibody made in CHO cells, captured by anti-human Fc
T22 sequence (VH, as listed by the source, chain 1 of 2): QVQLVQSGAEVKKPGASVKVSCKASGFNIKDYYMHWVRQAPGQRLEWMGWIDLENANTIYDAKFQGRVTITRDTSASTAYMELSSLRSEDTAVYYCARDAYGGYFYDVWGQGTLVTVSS
T22 sequence (VL, as listed by the source, chain 2 of 2): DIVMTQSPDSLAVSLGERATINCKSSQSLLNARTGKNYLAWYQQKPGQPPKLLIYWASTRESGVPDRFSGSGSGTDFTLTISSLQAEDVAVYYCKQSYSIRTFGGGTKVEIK
As to the kind of experiment: SPR Carterra avidity, CHO anti-ID. Here is the method:
as §1, §2, §3

The next assay has as its target T23, ADI-26919.
T23 construct: anti-CD3 antibody made in CHO cells, captured by anti-human Fc
Description: SPR Carterra avidity, CHO anti-ID. Here is the method: as §1, §2, §3

For assay [4], the target named is T13, ADI-67447. As to the kind of experiment: SPR Carterra avidity, CHO anti-ID. As to the method:
as §1, §2, §3

Another assay concerns the target T24, ADI-26924.
T24 construct: anti-CD3 antibody made in CHO cells, captured by anti-human Fc
Description: SPR Carterra avidity, CHO anti-ID. Here is the method: as §1, §2, §3

Another assay concerns the target T25, ADI-26920 IgG.
T25 construct: anti-CD3 IgG
Description: SPR Carterra avidity, CHO anti-ID. Here is the method:
as §1, §2, §3

Experimental findings from patent US20250019439A1 (Adimab, published 2025) are described below.

T11 sequence (VH, as listed by the source, chain 1 of 2): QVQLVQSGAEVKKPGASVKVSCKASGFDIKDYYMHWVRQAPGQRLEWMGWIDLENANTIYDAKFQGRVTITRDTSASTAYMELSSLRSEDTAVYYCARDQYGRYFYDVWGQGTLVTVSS
T3 sequence (VH, as listed by the source, chain 1 of 2): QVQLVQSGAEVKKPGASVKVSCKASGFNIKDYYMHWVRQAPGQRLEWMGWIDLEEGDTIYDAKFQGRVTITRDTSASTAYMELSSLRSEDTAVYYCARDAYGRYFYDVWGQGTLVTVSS
T18 sequence (VH, as listed by the source limits assumed, chain 1 of 2): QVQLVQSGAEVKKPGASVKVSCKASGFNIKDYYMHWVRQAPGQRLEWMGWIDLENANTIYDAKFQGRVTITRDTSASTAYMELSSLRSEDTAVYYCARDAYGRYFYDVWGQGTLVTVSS
T7 sequence (VH, as listed by the source, chain 1 of 2): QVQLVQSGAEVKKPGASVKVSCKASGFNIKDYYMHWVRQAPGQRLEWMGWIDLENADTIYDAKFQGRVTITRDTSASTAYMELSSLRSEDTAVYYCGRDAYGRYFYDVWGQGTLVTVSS
T24 sequence (VH, as listed by the source, chain 1 of 2): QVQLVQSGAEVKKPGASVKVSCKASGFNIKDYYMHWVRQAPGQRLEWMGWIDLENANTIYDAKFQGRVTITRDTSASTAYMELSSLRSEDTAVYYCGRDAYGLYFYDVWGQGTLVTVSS
T1 sequence (VH, as listed by the source, chain 1 of 2): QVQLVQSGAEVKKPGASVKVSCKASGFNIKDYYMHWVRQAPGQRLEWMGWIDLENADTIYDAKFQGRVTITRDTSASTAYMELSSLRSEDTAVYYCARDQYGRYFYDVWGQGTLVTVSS
T6 sequence (VH, as listed by the source limits assumed, chain 1 of 2): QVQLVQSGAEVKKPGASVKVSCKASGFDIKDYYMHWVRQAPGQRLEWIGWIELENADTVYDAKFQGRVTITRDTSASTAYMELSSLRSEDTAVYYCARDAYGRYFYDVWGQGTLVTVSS
T25 sequence (VH, as listed by the source limits assumed, chain 1 of 2): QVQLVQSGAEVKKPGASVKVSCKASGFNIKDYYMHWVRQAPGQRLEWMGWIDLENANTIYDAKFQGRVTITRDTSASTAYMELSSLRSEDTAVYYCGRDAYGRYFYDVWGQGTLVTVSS
T8 sequence (VH, as listed by the source limits assumed, chain 1 of 2): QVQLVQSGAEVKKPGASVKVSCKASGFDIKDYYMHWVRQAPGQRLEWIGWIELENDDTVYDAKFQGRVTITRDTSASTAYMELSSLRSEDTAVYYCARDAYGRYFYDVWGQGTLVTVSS
T12 sequence (VH, as listed by the source limits assumed, chain 1 of 2): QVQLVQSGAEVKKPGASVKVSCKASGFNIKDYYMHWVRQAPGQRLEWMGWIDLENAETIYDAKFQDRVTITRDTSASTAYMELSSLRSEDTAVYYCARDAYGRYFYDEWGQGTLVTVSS

B1: ADI-34134 IgG (antibody, V domains shown)
VH: QVQLVQSGAEVKKPGSSVKVSCKASGGTFSSYAISWVRQAPGQGLEWMGGIIPIFGTANYAQKFQGRVTITADESTSTAYMELSSLRSEDTAVYYCARGAPNYYGSGGYDDGWFDPWGQGTLVTVSS
VL: EIVLTQSPGTLSLSPGERATLSCRASQSVSSDYLAWYQQKPGQAPRLLIYGASSRATGIPDRFSGSGSGTDFTLTISRLEPEDFAVYYCQQFGRVPTFGGGTKVEIK
Consider B1, for which the Kd in the assay with ADI-76358 is 0.54 nM; with ADI-74966, 0.39 nM; in the assay with ADI-76362, 0.23 nM; in the assay with ADI-26913 IgG, 0.13 nM; with ADI-70330, 0.64 nM; with ADI-70326, 1.2 nM. Further, the Kd in the assay with ADI-76360 turned out to be 0.21 nM; in the assay with ADI-70327, 1.3 nM; with ADI-48587, 1.3 nM; with ADI-67450 it was 0.68 nM; with ADI-76357 [1], 0.088 nM; with ADI-67445, 0.13 nM. Further, the Kd was 0.12 nM with ADI-67447 [2]; 0.11 nM in the assay with ADI-74967; 0.11 nM with ADI-26909; 0.11 nM with ADI-26921 IgG; 0.094 nM in the assay with ADI-76361.

B2: ADI-34145 IgG (antibody, V domains shown)
VH: EVQLLESGGGLVQPGGSLRLSCAASGFTFSSYAMSWVRQAPGKGLEWVSTISGSGGSTYYADSVKGRFTISRDNSKNTLYLQMNSLRAEDTAVYYCARLGGRRGSGSSYYYYYGMDVWGQGTTVTVSS
VL: not shown
notes: anti-ID IgG
For B2, the Kd in the assay with ADI-26906 Fab is 3.55 nM; with ADI-26913 Fab it was 7.52 nM; in the assay with ADI-22523 Fab it was 4.13 nM; with ADI-26954 Fab, 19.4 nM; with ADI-76357 [3] it was 5.6 nM; with ADI-26943, 4.2 nM. Besides, the Kd with ADI-26919 is 12 nM; in the assay with ADI-67447 [4], 14 nM; in the assay with ADI-26924 it was 3.5 nM; with ADI-26920 IgG it was 15 nM.
